Reference: patent US20190010233A1 (JIANGSU HYAMAB PHARMACEUTICAL, published 2019)
Numbering of substitutions follows the chain as printed.

B1: chimeric anti-PD-L1 antibody 73G11B3 (antibody, V domains shown)
VH: EVQLVESGGGLVQPGGSLRLSCVVSGFTFSSYWMSWVRQTPGKGLEWVANIKQDGSEKYYVDSVKGRLTISRDNAKNSLYLQMNSLRAEDTAVYYCVRDRAVPGTGALDIWGQGTMVTVSS
VL: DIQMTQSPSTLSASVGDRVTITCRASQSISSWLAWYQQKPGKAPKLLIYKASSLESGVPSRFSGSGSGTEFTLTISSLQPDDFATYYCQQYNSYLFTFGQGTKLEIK
notes: Purified from hybridoma of Harbour H2L2 mice: human variable regions, rat constant regions
B2: chimeric anti-PD-L1 antibody 127D2F3 (antibody, V domains shown)
VH: EVQLVESGGGLVQPGGSLRLSCVASGFTFSSYWMSWVRQAPGKGLEWVANIKQDGSEKYYVDSVKGRLTISRDNAKNSLYLQMKSLRAEDTAVYYCARDPIYSSYFDYWGQGILVTVSS
VL: DIQMTQSPSSLSASVGDRVTITCRASQSISNYLNWYQQKPGKAPKLLIYAASSLQSGVPSRFSGSGSGTDFTLTISSLQPEDFAAYYCQQSYGIPFTFGPGTKVDIK
notes: as for B1
B3: chimeric anti-PD-L1 antibody 192D9E7 (antibody, V domains shown)
VH: EVQLVESGGGLVQPGGSLRLSCAASGFTFSSYWMSWVRQAPGKGLEWVADIKQDGSEKYYVDSVKGRFTISRDNAKNSLYLQMNSLRAEDTAVYYCTRDKPHWGGVMDAWGQGTSVTVSS
VL: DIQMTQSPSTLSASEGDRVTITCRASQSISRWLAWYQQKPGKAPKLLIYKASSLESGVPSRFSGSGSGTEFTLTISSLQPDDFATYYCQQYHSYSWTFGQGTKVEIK
notes: as for B1
B4: chimeric anti-PD-L1 antibody 105C5D7 (antibody, V domains shown)
VH: EVQLVESGGGLVQPGGSLRLSCAASGFTFSSYWMSWVRQAPGKGLEWVANIKQDGNEKYYVDSVKGRFTISRDNAKNSLYLQMNSLRAEDTAVYYCARNIKWGDAFDIWGQGTMVTVSS
VL: B2 VL with N31S, A85I, Y87S, G93S, F96L, P100G, D105E
notes: as for B1
B5: chimeric anti-PD-L1 antibody 78A11F6 (antibody, V domains shown)
VH: B1 VH with V23A, V24A, F27I, D62K, L68F, L108F, T118I
VL: DIQMTQSPSTLSASVGDRVTITCRASQSISNWLAWYQQKPGKAPKLLIYKASSLESGVPSRFSGSGSGTEFTLTISSLQPDDFATYYCQQYDSSLFTFGQGTKLEIK
notes: as for B1
B6: chimeric anti-PD-L1 antibody 73D3G2 (antibody, V domains shown)
VH: EVQLVESGGGLVQPGGSLRLSCAASGFTFNTYWMNWVRQAPGRGLEWVANIKQDGGEKYYVDSVKGRFTISRDNAKNSLYLQMNSLRAEDTAMYYCARDGRSWYPDAFDIWGQGTVVTVSS
VL: DIQMTQSPSTLSASVGDRVTITCRASQSISTWLAWYQQKLGKAPKLLIYEVSILESGVPSRFSGSGSGTEFTLTISSLQPDDFATYYCQQYHSFSSFGGGTRVEIK
notes: as for B1

The binders below were run against T1, human PD-L1^ECD-hFc protein (human, UniProt Q9NZQ7 19-239, biotinylated in the PD-1 binding ELISA (Table 3) and in the Octet assay (Table 12)) (assay: ELISA, 1 nM mAb).
T1 construct: The plain and the biotinylated protein are kept as one molecule; also called PD-L1-hFc; Immunogen A; not shown: human IgG Fc fragment (hFc)
Procedure: (§1) 100 μL of the diluted recombinant proteins were added to each well of 96-well plate. The plates were sealed with plastic film and incubated at 4° C. overnight. The plates were washed twice with wash buffer (PBS+0.01% (v/v) Tween20), and incubated with blocking buffer (PBS+0.01% (v/v) Tween20+1% (w/w) BSA) at room temperature for 2 hours. The blocking buffer was aspirated away, and 100 μL of purified anti-PD-L1 antibodies were added to each well and incubated for 2 hours at 37° C. The plates were washed three times with wash buffer (PBS+0.01% (v/v) Tween20). HRP-conjugated secondary antibody (Sigma) was added to each well and incubated for 2 hours at 37° C. After the plates were washed three times with wash buffer, 100 μL TMB substrate were added to each well, and the plates were incubated for 30 minutes at room temperature. 100 μL stop solution (0.1N HCl) was added to each well to stop the reaction.

T1 sequence (Q9NZQ7 19-239): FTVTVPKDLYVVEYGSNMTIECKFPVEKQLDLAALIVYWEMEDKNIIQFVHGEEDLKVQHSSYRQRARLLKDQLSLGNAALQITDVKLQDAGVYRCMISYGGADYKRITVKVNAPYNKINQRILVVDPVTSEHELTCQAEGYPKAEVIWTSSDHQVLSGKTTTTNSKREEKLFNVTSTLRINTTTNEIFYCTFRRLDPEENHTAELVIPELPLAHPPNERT

Binder | OD450 nm
B1 | 2.7
B2 | 2.8
B3 | 2.77

Each binder was assayed against T1, human PD-L1^ECD-hFc protein (assay: ELISA, 10 nM mAb).
Procedure: as §1

Binder | OD450 nm
B4 | 1.56
B5 | 1.72
B1 | 2.73
B2 | 2.7
B3 | 2.69
B6 | 2.09

These binders were tested against T1, human PD-L1^ECD-hFc protein (assay: ELISA, 0.123 nM mAb).
Procedure: as §1

Binder | OD450 nm
B4 | 0.67
B5 | 0.84
B6 | 0.72

The binders below were run against T2, cyno PD-L1^ECD-hFc protein (cyno, UniProt G7PSE7 19-239) (assay: ELISA, 0.123 nM mAb).
T2 construct: also called Cyno Monkey PD-L1^ECD-hFc
Procedure: as §1

T2 sequence (G7PSE7 entry or part of it limits assumed): as the sequence (Q9NZQ7 19-239) above, with A33T, A34S, S62N, R68Q, Q82R, F173L, T185A, T192I, H215L counted along it

Binder | OD450 nm
B4 | 0.67
B5 | 0.91
B6 | 0.72

Each binder was assayed against T1, human PD-L1^ECD-hFc protein (assay: ELISA, 0.370 nM mAb).
Procedure: as §1

Binder | OD450 nm
B4 | 1.19
B5 | 1.39
B6 | 1.29

These binders were tested against T2, cyno PD-L1^ECD-hFc protein (assay: ELISA, 0.370 nM mAb).
Procedure: as §1

Binder | OD450 nm
B4 | 1.19
B5 | 1.5
B6 | 1.29

The binders below were run against T1, human PD-L1^ECD-hFc protein (assay: ELISA, 0.0001 nM mAb).
Procedure: as §1

Binder | OD450 nm
B1 | 0.2
B2 | 0.2
B3 | 0.21

What follows are binders tested against T3, full length human PD-L1 on cells (human, UniProt Q9NZQ7 19-290) (assay: cell-based or functional assay).
T3 sequence (Q9NZQ7 19-290 limits assumed): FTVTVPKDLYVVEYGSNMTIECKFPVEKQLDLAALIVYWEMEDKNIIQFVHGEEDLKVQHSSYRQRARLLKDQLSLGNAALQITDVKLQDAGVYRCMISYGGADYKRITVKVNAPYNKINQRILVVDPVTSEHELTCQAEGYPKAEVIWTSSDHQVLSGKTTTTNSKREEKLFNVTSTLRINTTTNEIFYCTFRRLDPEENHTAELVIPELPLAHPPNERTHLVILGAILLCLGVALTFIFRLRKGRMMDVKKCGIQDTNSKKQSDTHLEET

Binder | IFN-γ (pg/mL), PBMC stimulation, 0.001 µg/mL mAb [pg/mL] | IFN-γ (pg/mL), PBMC stimulation, 0.01 µg/mL mAb [pg/mL] | IFN-γ (pg/mL), PBMC stimulation, 0.1 µg/mL mAb [pg/mL] | IFN-γ (pg/mL), PBMC stimulation, 1 µg/mL mAb [pg/mL] | IFN-γ (pg/mL), PBMC stimulation, 10 µg/mL mAb [pg/mL]
B4 | 1640 | 3380 | 5850 | 7570 | 
B5 | 3740 | 11100 | 6100 | 13000 | 
B1 | 2400 | 5700 | 6290 | 7860 | 10700
B2 | 3380 | 7030 | 7610 | 8100 | 10100
B3 | 602 | 501 | 7470 | 8300 | 15700
B6 | 3830 | 3280 | 9560 | 8760 | 

What follows are binders tested against T3, full length human PD-L1 on cells (assay: FACS CHO-K1-hPD-L1, 10 nM mAb).
Procedure: (§2) Other CHO-K1 were stably transfected with a pIRES plasmid containing the nucleic acid sequence encoding full length cyno PD-L1 to generate CHO-K1 cells stably expressing cyno PD-L1 (herein referred to as CHO-K1-cPD-L1 cells). […] The culture media was aspirated, and the cells were washed twice with HBSS (Hanks Balanced Salt Solution, Invitrogen). The cells were treated with enzyme-free cell dissociation solution (Versene solution, Invitrogen) and collected. The cells were then washed twice with HBSS, cell counts were determined, and cells were resuspended with HBSS at 2×10⁶ cells/mL. Goat serum was added to the cell suspension to a final concentration of 1%, and the cells were blocked for 30 minutes on ice and then washed twice with HBSS. The cells were collected after centrifugation and resuspended in FACS buffer (HBSS+1% BSA, v/v) at 2×10⁶ cells/mL. 100 μL of the cell suspension were then added to each well of 96-well plate. 100 μL of purified anti-PD-L1 antibodies from Example 2 were added to each well of the 96-well plate and incubated for 2 hours on ice. […] The samples were washed three times with FACS buffer, and 100 μL fixation buffer (4% paraformaldehyde v/v) were added to each well and incubated for 10 minutes. The cells were then washed twice with FACS buffer and resuspended in 100 μL FACS buffer. The mean fluorescence intensity (MFI) was determined using FACS Calibur (BD), and the results are shown in FIGS. 7-8 and in Tables 10-11.

Binder | Mean fluorescence intensity
B1 | 213
B2 | 235
B3 | 134

The binders below were run against T3, full length human PD-L1 on cells (assay: FACS CHO-K1-hPD-L1, 0.01 nM mAb).

Binder | Mean fluorescence intensity
B1 | 3.96
B2 | 5.31
B3 | 7.85

These binders were tested against T3, full length human PD-L1 on cells (assay: FACS CHO-K1-hPD-L1, 11.11 nM mAb).

Binder | Mean fluorescence intensity
B4 | 201
B5 | 210
B6 | 114

What follows are binders tested against T3, full length human PD-L1 on cells (assay: FACS CHO-K1-hPD-L1, 33.33 nM mAb).

Binder | Mean fluorescence intensity
B4 | 194
B5 | 225
B6 | 116

What follows are binders tested against T3, full length human PD-L1 on cells (assay: FACS CHO-K1-hPD-L1, 100.00 nM mAb).

Binder | Mean fluorescence intensity
B4 | 182
B5 | 232
B1 | 215
B2 | 234
B3 | 146
B6 | 124

What follows are binders tested against T4, full length cyno PD-L1 on cells (cyno, UniProt G7PSE7 19-290) (assay: FACS CHO-K1-cPD-L1, 100.00 nM mAb).
T4 construct: also called CHO-K1-cPD-L1
Procedure: as §2

T4 sequence (G7PSE7 entry or part of it limits assumed): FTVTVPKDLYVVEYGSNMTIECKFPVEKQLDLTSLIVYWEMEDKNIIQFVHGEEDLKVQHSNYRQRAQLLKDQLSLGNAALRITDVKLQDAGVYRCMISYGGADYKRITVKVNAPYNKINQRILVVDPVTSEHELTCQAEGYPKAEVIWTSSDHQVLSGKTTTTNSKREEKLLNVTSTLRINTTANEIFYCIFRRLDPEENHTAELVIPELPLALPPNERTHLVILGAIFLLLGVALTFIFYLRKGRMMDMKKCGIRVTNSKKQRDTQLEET

Binder | Mean fluorescence intensity
B4 | 120
B5 | 144
B1 | 107
B2 | 117
B3 | 87.9
B6 | 137

Each binder was assayed against T1, human PD-L1^ECD-hFc protein (assay: BLI Octet Red 96, biotinylated PD-L1-hFc on SA sensor).
Procedure: Dissociation constants were determined by Octed red 96 (Fortiebio). The detailed operation and methods were followed according to the specifications of the instrument provided by the manufacturer. Briefly, a streptavidin sensor (SA sensor, Fortiebio) was used for the affinity determination. […] The reaction mixture was further incubated in PBS buffer (pH 7.4) containing 0.1% (v/w) BSA and 0.02% (v/v) Tween20 at 30° C. for 5 minutes.

Binder | Kd [nM] | koff [s⁻¹] | kon [M⁻¹ s⁻¹]
B4 | 0.245 | 0.000368 | 1.5e+06
B5 | 0.148 | 3.64e-05 | 245000
B1 | 0.116 | 3.95e-05 | 341000
B2 | < 0.001 | < 1e-07 | 368000
B3 | 0.0519 | 2.63e-05 | 506000
B6 | < 0.001 | < 1e-07 | 398000
